Tests used:
Format in all cases: biochemical, Escherichia coli
purified protein [1] = substrate: CCC(=O)SCCNC(=O)CCNC(=O)[C@H](O)C(C)(C)COP(=O)(O)OP(=O)(O)OC[C@H]1O[C@@H](n2cnc3c(N)ncnc32)[C@H](O)[C@@H]1OP(=O)(O)O; assay: purified protein; conditions: glycyl radical (activated by PFL-AE)
[2] = substrate: O=CO; assay: Michaelis-Menten kinetics of purified enzyme, LDH-coupled NADH assay (KM); conditions: glycyl radical (activated by PFL-AE)
[3] = substrate: CCC(=O)SCCNC(=O)CCNC(=O)[C@H](O)C(C)(C)COP(=O)(O)OP(=O)(O)OC[C@H]1O[C@@H](n2cnc3c(N)ncnc32)[C@H](O)[C@@H]1OP(=O)(O)O; assay: as above; conditions: glycyl radical (activated by PFL-AE)
[4] = substrate: CC(=O)SCCNC(=O)CCNC(=O)[C@H](O)C(C)(C)COP(=O)(O)OP(=O)(O)OC[C@H]1O[C@@H](n2cnc3c(N)ncnc32)[C@H](O)[C@@H]1OP(=O)(O)O; assay: Michaelis-Menten kinetics of purified enzyme, DTNB assay of released CoA (KM)
[5] = substrate: N[C@@H](CO)C(=O)O; assay: Michaelis-Menten kinetics of purified enzyme, DTNB assay (KM)
purified protein [6] = substrate: N[C@@H](CCOC(=O)CCC(=O)O)C(=O)O; assay: purified protein; conditions: pyridoxal-5'-phosphate

B1: pyruvate formate-lyase (PFL, PflB) (Escherichia coli K-12) (protein)
chain: SELNEKLATAWEGFTKGDWQNEVNVRDFIQKNYTPYEGDESFLAGATEATTTLWDKVMEGVKLENRTHAPVDFDTAVASTITSHDAGYINKQLEKIVGLQTEAPLKRALIPFGGIKMIEGSCKAYNRELDPMIKKIFTEYRKTHNQGVFDVYTPDILRCRKSGVLTGLPDAYGRGRIIGDYRRVALYGIDYLMKDKLAQFTSLQADLENGVNLEQTIRLREEIAEQHRALGQMKEMAAKYGYDISGPATNAQEAIQWTYFGYLAAVKSQNGAAMSFGRTSTFLDVYIERDLKAGKITEQEAQEMVDHLVMKLRMVRFLRTPEYDELFSGDPIWATESIGGMGLDGRTLVTKNSFRFLNTLYTMGPSPEPNMTILWSEKLPLNFKKFAAKVSIDTSSLQYENDDLMRPDFNNDDYAIACCVSPMIVGKQMQFFGARANLAKTMLYAINGGVDEKLKMQVGPKSEPIKGDVLNYDEVMERMDHFMDWLAKQYITALNIIHYMHDKYSYEASLMALHDRDVIRTMACGIAGLSVAADSLSAIKYAKVKPIRDEDGLAIDFEIEGEYPQFGNNDPRVDDLAVDLVERFMKKIQKLHTYRDAIPTQSVLTITSNVVYGKKTGNTPDGRRAGAPFGPGANPMHGRDQKGAVASLTSVAKLPFAYAKDGISYTFSIVPNALGKDDEVRKTNLAGLMDGYFHHEASIEGGQHLNVNVMNREMLLDAMENPEKYPQLTIRVSGYAVRFNSLTKEQQQDVITRTFTQSM
- Km (purified protein [1]): 830 ± 580 µM
- Vmax (purified protein [1]): 1.1 µmol/min/mg
- kcat (purified protein [1]): 1.7 ± 0.9 s⁻¹
- Km [2]: 69000 ± 11000 µM
- Vmax [2]: 0.59 µmol/min/mg
- kcat [2]: 0.9 ± 0.05 s⁻¹

B2: TdcE (2-ketobutyrate formate-lyase) (Escherichia coli K-12) (protein)
chain: MKVDIDTSDKLYADAWLGFKGTDWKNEINVRDFIQHNYTPYEGDESFLAEATPATTELWEKVMEGIRIENATHAPVDFDTNIATTITAHDAGYINQPLEKIVGLQTDAPLKRALHPFGGINMIKSSFHAYGREMDSEFEYLFTDLRKTHNQGVFDVYSPDMLRCRKSGVLTGLPDGYGRGRIIGDYRRVALYGISYLVRERELQFADLQSRLEKGEDLEATIRLREELAEHRHALLQIQEMAAKYGFDISRPAQNAQEAVQWLYFAYLAAVKSQNGGAMSLGRTASFLDIYIERDFKAGVLNEQQAQELIDHFIMKIRMVRFLRTPEFDSLFSGDPIWATEVIGGMGLDGRTLVTKNSFRYLHTLHTMGPAPEPNLTILWSEELPIAFKKYAAQVSIVTSSLQYENDDLMRTDFNSDDYAIACCVSPMVIGKQMQFFGARANLAKTLLYAINGGVDEKLKIQVGPKTAPLMDDVLDYDKVMDSLDHFMDWLAVQYISALNIIHYMHDKYSYEASLMALHDRDVYRTMACGIAGLSVATDSLSAIKYARVKPIRDENGLAVDFEIDGEYPQYGNNDERVDSIACDLVERFMKKIKALPTYRNAVPTQSILTITSNVVYGQKTGNTPDGRRAGTPFAPGANPMHGRDRKGAVASLTSVAKLPFTYAKDGISYTFSIVPAALGKEDPVRKTNLVGLLDGYFHHEADVEGGQHLNVNVMNREMLLDAIEHPEKYPNLTIRVSGYAVRFNALTREQQQDVISRTFTQAL
- Km [3]: 520 ± 81 µM
- Vmax [3]: 2.1 µmol/min/mg
- kcat [3]: 3.2 ± 0.2 s⁻¹
- Km [2]: 20000 ± 3000 µM
- Vmax [2]: 1.8 µmol/min/mg
- kcat [2]: 2.7 ± 0.1 s⁻¹

B3: serine acetyltransferase (CysE) (Escherichia coli K-12) (protein)
chain: MSCEELEIVWNNIKAEARTLADCEPMLASFYHATLLKHENLGSALSYMLANKLSSPIMPAIAIREVVEEAYAADPEMIASAACDIQAVRTRDPAVDKYSTPLLYLKGFHALQAYRIGHWLWNQGRRALAIFLQNQVSVTFQVDIHPAAKIGRGIMLDHATGIVVGETAVIENDVSILQSVTLGGTGKSGGDRHPKIREGVMIGAGAKILGNIEVGRGAKIGAGSVVLQPVPPHTTAAGVPARIVGKPDSDKPSMDMDQHFNGINHTFEYGDGI
- Km [4]: 600 ± 200 µM
- Km [5]: 800 ± 300 µM

B4: cystathionine γ-synthase (MetB) (Escherichia coli K-12) (protein)
chain: MTRKQATIAVRSGLNDDEQYGCVVPPIHLSSTYNFTGFNEPRAHDYSRRGNPTRDVVQRALAELEGGAGAVLTNTGMSAIHLVTTVFLKPGDLLVAPHDCYGGSYRLFDSLAKRGCYRVLFVDQGDEQALRAALAEKPKLVLVESPSNPLLRVVDIAKICHLAREVGAVSVVDNTFLSPALQNPLALGADLVLHSCTKYLNGHSDVVAGVVIAKDPDVVTELAWWANNIGVTGGAFDSYLLLRGLRTLVPRMELAQRNAQAIVKYLQTQPLVKKLYHPSLPENQGHEIAARQQKGFGAMLSFELDGDEQTLRRFLGGLSLFTLAESLGGVESLISHAATMTHAGMAPEARAAAGISETLLRISTGIEDGEDLIADLENGFRAANKG
- Km (purified protein [6]): 600 ± 80 µM
